Results published in patent US20210238260A1.

These substances were tested against antithrombin III (AT-III), plasma purified human, in complex with unfractionated heparin (UFH) (human) (UniProt P01008) (assay: inhibition of FIXa by AT-III/UFH, pseudo-first-order, residual activity on Mesyl-D-CHG-Gly-Arg-AMC).

kapp (second-order rate constant for inhibition)	Substance
9600 M⁻¹ s⁻¹	FIXa-K247N/N249S/R318Y/R338E/T343R/R403E/E410N (from UniProt P00740 47-191; P00740 227-461) (enzyme)
780000 M⁻¹ s⁻¹	FIXa-Y155F/R318Y/R338E/T343R/E410N (from UniProt P00740 47-191; P00740 227-461) (enzyme)
2300 M⁻¹ s⁻¹	FIXa-Y155F/K247N/N249S/R318Y/R338E/T343R/R403E (from UniProt P00740 47-191; P00740 227-461) (enzyme)
8700 M⁻¹ s⁻¹	FIXa-Y155F/K247N/N249S/R318Y/R338E/T343R/R403E/E410N (from UniProt P00740 47-191; P00740 227-461) (enzyme)
27000 M⁻¹ s⁻¹	FIXa-Y155F/K247N/N249S/R318Y/R338E (from UniProt P00740 47-191; P00740 227-461) (enzyme)
220000 M⁻¹ s⁻¹	FIXa-Y155F/R338E/T343R/R403E/E410S (from UniProt P00740 47-191; P00740 227-461) (enzyme)
9900 M⁻¹ s⁻¹	FIXa-R318Y/R338E/T343R/R403E/E410S (from UniProt P00740 47-191; P00740 227-461) (enzyme)
5300 M⁻¹ s⁻¹	FIXa-K228N/K247N/N249S/R318Y/R338E/T343R/R403E/E410N (from UniProt P00740 47-191; P00740 227-461) (enzyme)
55000 M⁻¹ s⁻¹	FIXa-Y155F/R318Y/T343R/R403E/E410N (from UniProt P00740 47-191; P00740 227-461) (enzyme)
2600 M⁻¹ s⁻¹	FIXa-N260S/R318Y/R338E/T343R/R403E/E410N (from UniProt P00740 47-191; P00740 227-461) (enzyme)
89000 M⁻¹ s⁻¹	FIXa-Y155F/K247N/N249S/R338E/T343R/R403E/E410N (from UniProt P00740 47-191; P00740 227-461) (enzyme)
2800 M⁻¹ s⁻¹	FIXa-Y155F/R318Y/R338E/T343R/R403E (from UniProt P00740 47-191; P00740 227-461) (enzyme)
2100 M⁻¹ s⁻¹	FIXa-Y155F/K247N/N249S/R318Y/R403E (from UniProt P00740 47-191; P00740 227-461) (enzyme)

The substances below were run against plasma purified human antithrombin III (AT-III), in complex with unfractionated heparin (UFH) (human) (UniProt P01008) (assay: inhibition of FIXa by AT-III/UFH, residual activity on Mesyl-D-CHG-Gly-Arg-AMC, pseudo-first-order).

kapp (apparent second-order rate constant for inhibition)	Substance
1.8e+06 M⁻¹ s⁻¹	FIXa-R318Y/R338E/T343R (from UniProt P00740 47-191; P00740 227-461) (enzyme)
200000 M⁻¹ s⁻¹	FIXa-Y155F/R318Y/T343R/E410N (from UniProt P00740 47-191; P00740 227-461) (enzyme)
1.2e+06 M⁻¹ s⁻¹	FIXa-R318Y/T343R/E410N (from UniProt P00740 47-191; P00740 227-461) (enzyme)
44000 M⁻¹ s⁻¹	FIXa-Y155F/K247N/N249S/R338E/T343R/R403E (from UniProt P00740 47-191; P00740 227-461) (enzyme)
880000 M⁻¹ s⁻¹	FIXa-Y155F/T343R/R403E/E410N (from UniProt P00740 47-191; P00740 227-461) (enzyme)
360000 M⁻¹ s⁻¹	FIXa-Y155F/K247N/N249S/R318Y/T343R/E410N (from UniProt P00740 47-191; P00740 227-461) (enzyme)
7100 M⁻¹ s⁻¹	FIXa-K228N/R318Y/R338E/T343R/R403E/E410N (from UniProt P00740 47-191; P00740 227-461) (enzyme)
2.9e+06 M⁻¹ s⁻¹	FIXa-Y155F/K247N/N249S/R338E/E410N (from UniProt P00740 47-191; P00740 227-461) (enzyme)
11000 M⁻¹ s⁻¹	FIXa-Y155F/R318Y/T343R/R403E (from UniProt P00740 47-191; P00740 227-461) (enzyme)
1.3e+07 M⁻¹ s⁻¹	FIXa-Y155F/R338E/T343R/E410N (from UniProt P00740 47-191; P00740 227-461) (enzyme)
49000 M⁻¹ s⁻¹	FIXa-K247N/N249S/R318Y/T343R/E410N (from UniProt P00740 47-191; P00740 227-461) (enzyme)
1.4e+07 M⁻¹ s⁻¹	FIXa-K247N/N249S/R338E/T343R/E410N (from UniProt P00740 47-191; P00740 227-461) (enzyme)
320000 M⁻¹ s⁻¹	FIXa-K247N/N249S/R318Y/R338E/T343R (from UniProt P00740 47-191; P00740 227-461) (enzyme)
620000 M⁻¹ s⁻¹	FIXa-Y155F/K247N/N249S/T343R/R403E/E410N (from UniProt P00740 47-191; P00740 227-461) (enzyme)

What follows are substances tested against antithrombin III (plasma purified human AT-III), in complex with unfractionated heparin (human) (UniProt P01008) (assay: AT-III/UFH inhibition of FIXa; residual activity on Pefafluor FIXa substrate, varied incubation time).

kapp (apparent second-order rate constant for inhibition)	Substance
620000 M⁻¹ s⁻¹	FIXa R318Y/R338E (from UniProt P00740 47-191; P00740 227-461) (enzyme)
180000 M⁻¹ s⁻¹	FIXa Y155F/K247N/N249S/R318Y/R338E/E410N (from UniProt P00740 47-191; P00740 227-461) (enzyme)
3000 M⁻¹ s⁻¹	FIXa I251S/R318Y/R338E/R403E/E410N (from UniProt P00740 47-191; P00740 227-461) (enzyme)
4e+06 M⁻¹ s⁻¹	FIXa Y155F/N346D (from UniProt P00740 47-191; P00740 227-461) (enzyme)
2900 M⁻¹ s⁻¹	FIXa K228N/R318Y/R338E/R403E/E410N (from UniProt P00740 47-191; P00740 227-461) (enzyme)
1700 M⁻¹ s⁻¹	FIXa A103N/N105S/K247N/N249S/R318Y/R338E/R403E/E410N (from UniProt P00740 47-191; P00740 227-461) (enzyme)
28000 M⁻¹ s⁻¹	FIXa R318Y/R403E/E410N (from UniProt P00740 47-191; P00740 227-461) (enzyme)
8100 M⁻¹ s⁻¹	FIXa Y155F/R318Y/R403E/E410N (from UniProt P00740 47-191; P00740 227-461) (enzyme)
5e+06 M⁻¹ s⁻¹	FIXa T343R/Y345T (from UniProt P00740 47-191; P00740 227-461) (enzyme)
1000 M⁻¹ s⁻¹	FIXa D104N/K106S/Y155F/K247N/N249S/R318Y/R338E/R403E/E410N (from UniProt P00740 47-191; P00740 227-461) (enzyme)
1.9e+06 M⁻¹ s⁻¹	FIXa K228N/R318Y/E410N (from UniProt P00740 47-191; P00740 227-461) (enzyme)
2.1e+06 M⁻¹ s⁻¹	FIXa T343Q (from UniProt P00740 47-191; P00740 227-461) (enzyme)
1600 M⁻¹ s⁻¹	FIXa Y155F/K247N/N249S/R318Y/R338E/R403E/E410N (from UniProt P00740 47-191; P00740 227-461) (enzyme)
3000 M⁻¹ s⁻¹	FIXa D85N/K228N/R318Y/R338E/R403E/E410N (from UniProt P00740 47-191; P00740 227-461) (enzyme)
860000 M⁻¹ s⁻¹	FIXa K247N/N249S/R318Y/R338E/E410N (from UniProt P00740 47-191; P00740 227-461) (enzyme)
4.2e+06 M⁻¹ s⁻¹	FIXa T343R (from UniProt P00740 47-191; P00740 227-461) (enzyme)
4600 M⁻¹ s⁻¹	FIXa Y155F/K228N/R318Y/R338E/R403E/E410N (from UniProt P00740 47-191; P00740 227-461) (enzyme)
1.8e+06 M⁻¹ s⁻¹	FIXa Y345T (from UniProt P00740 47-191; P00740 227-461) (enzyme)
2900 M⁻¹ s⁻¹	FIXa D104N/K106S/Y155F/R318Y/R338E/R403E/E410N (from UniProt P00740 47-191; P00740 227-461) (enzyme)
450000 M⁻¹ s⁻¹	FIXa Y155F/R318Y/R338E/E410N (from UniProt P00740 47-191; P00740 227-461) (enzyme)
840000 M⁻¹ s⁻¹	FIXa N346Y (from UniProt P00740 47-191; P00740 227-461) (enzyme)
53000 M⁻¹ s⁻¹	FIXa D203N/F205T/R318Y/E410N (from UniProt P00740 47-191; P00740 227-461) (enzyme)
1600 M⁻¹ s⁻¹	FIXa R318Y/R338E/R403E/E410S (from UniProt P00740 47-191; P00740 227-461) (enzyme)
2600 M⁻¹ s⁻¹	FIXa A103N/N105S/R318Y/R338E/R403E/E410N (from UniProt P00740 47-191; P00740 227-461) (enzyme)
2000 M⁻¹ s⁻¹	FIXa K247N/N249S/R318Y/R338E/R403E/E410N (from UniProt P00740 47-191; P00740 227-461) (enzyme)
240000 M⁻¹ s⁻¹	FIXa I251S/R318Y/R338E/E410N (from UniProt P00740 47-191; P00740 227-461) (enzyme)
5700 M⁻¹ s⁻¹	FIXa D104N/K106S/I251S/R318Y/R338E/R403E/E410N (from UniProt P00740 47-191; P00740 227-461) (enzyme)
3900 M⁻¹ s⁻¹	FIXa D104N/K106S/R318Y/R338E/R403E/E410N (from UniProt P00740 47-191; P00740 227-461) (enzyme)
